# Results: the RNAGym collection of RNA variant scans (doi:10.7554/elife.80360)
# B1: Twister Ribozyme (parent)
# chain: AACACUGCCAAUGCCGGUCCCAAGCCCGGAUAAAAGUGGAGGGGGCGG
# Variants of: B1
# Assay: self-cleavage, relative activity (ratio to wild type); higher = more cleavage; co-transcriptional
row,Variant,self-cleavage
1,G17A G42U,0.135
2,G17A G42C,0.192
3,C19G A35G,0.0996
4,G17U C21G,0.064
5,G17U C21A,0.0909
6,U18G C21G,0.0716
7,U18G C21A,0.133
8,G17C C25G,0.0833
9,U18A G45U,0.272
10,C19A G39A,0.136
11,C19A G39C,0.126
12,C19G G24C,0.125
13,C19G G24A,0.0928
14,U18C U31A,0.54
15,U18C U31G,0.477
16,U18G G47A,0.0493
17,U18G G47U,0.0478
18,C19G A32G,0.267
19,C19G A34G,0.108
20,C19G A34U,0.12
21,G17U G41A,0.103
22,G17U G41C,0.0885
23,G17U G41U,0.101
24,G17A U37A,0.207

row,Variant,self-cleavage
1,U18C G42C,0.114
2,G17A G36U,0.108
3,G17A G36C,0.118
4,G17A G36A,0.141
5,G17A G39A,0.153
6,G17C A34C,0.0523
7,G17U G24A,0.101
8,U18C G48U,0.496
9,U18C G48C,0.562
10,U18C G48A,0.368
11,G17A G41A,0.148
12,G17A G41U,0.169
13,C19A C46A,0.197
14,C19G G29C,0.0886
15,C19G G29U,0.29
16,G17U G44A,0.219
17,G17U G44U,0.374
18,C19G A40G,0.135
19,C19G A40U,0.0582
20,C19G A23G,0.0717
21,C19G A23C,0.0786
22,G17A G28A,0.296
23,G17A G28C,0.393
24,C19A A35G,0.095

row,Variant,self-cleavage
1,C19A G42A,0.135
2,C19A G42U,0.103
3,C19A G42C,0.197
4,U18C A33U,0.542
5,U18C A33G,0.503
6,C19G C26G,0.0807
7,C19G C26A,0.0816
8,U18C G29A,0.275
9,U18C C46G,0.477
10,U18C C46A,0.463
11,U18C C46U,0.599
12,G17U A22G,0.103
13,U18C A32G,0.664
14,U18C A32C,0.486
15,U18A A33C,0.247
16,U18C C25A,0.105
17,U18A C25U,0.0861
18,G17C A33C,0.0741
19,C19G G39A,0.104
20,G17U G39C,0.0939
21,G17U G39U,0.108
22,G17C G41C,0.104
23,G17C G41U,0.0841
24,G17C G41A,0.0738

row,Variant,self-cleavage
1,C19G A33C,0.0963
2,U18C G44A,0.714
3,C19A A33C,0.0946
4,C19A A33U,0.148
5,C19G C25G,0.124
6,C19G C25U,0.151
7,U18G A23U,0.0485
8,C19A G48U,0.206
9,U18G G43C,0.116
10,U18G G43A,0.0708
11,G17C G38C,0.054
12,G17C G38A,0.0789
13,G17U U18C,0.126
14,U18C G45C,0.132
15,U18C G45A,0.48
16,U18A A35G,0.123
17,U18A A35C,0.445
18,U18A A35U,0.624
19,U18G A32G,0.0643
20,G17U A40U,0.145
21,U18C A22G,0.0724
22,C19A G29A,0.27
23,U18G C25G,0.0608
24,U18G C25U,0.085

row,Variant,self-cleavage
1,U18G C25A,0.138
2,U18C G39U,0.104
3,C19G C20U,0.117
4,C19G C20A,0.0695
5,U18A C46A,0.252
6,U18A C46G,0.475
7,U18A C46U,0.617
8,G17U A35U,0.372
9,U18G G38U,0.0721
10,U18G G38C,0.102
11,U18G A22G,0.0592
12,U18G A22U,0.0775
13,G17C U37C,0.0657
14,G17C U37A,0.0865
15,G17C U37G,0.0835
16,U18G G36A,0.0894
17,U18G G36C,0.0571
18,U18A G28C,0.185
19,U18A G28A,0.2
20,U18A G28U,0.314
21,G17U C19G,0.111
22,G17U C19U,0.143
23,C19A A22C,0.127
24,C19A A22U,0.11

row,Variant,self-cleavage
1,U18A U37C,0.0568
2,U18A G41A,0.101
3,U18G G44C,0.0756
4,U18G G44U,0.0806
5,G17U A23C,0.0677
6,G17U A23U,0.159
7,G17U A23G,0.0937
8,C19A G41U,0.109
9,C19A G41C,0.114
10,G17U C46A,0.274
11,G17U C46U,0.625
12,U18A A23G,0.0959
13,G17C C46U,0.144
14,G17C C46G,0.139
15,G17U A34U,0.159
16,G17C A30C,0.101
17,G17C A30U,0.143
18,G17C A30G,0.0984
19,U18A G38C,0.448
20,U18A G38A,0.229
21,G17U C20U,0.167
22,G17U C20G,0.105
23,G17A U18C,0.221
24,G17A U18A,0.18

row,Variant,self-cleavage
1,G17A U18G,0.123
2,C19A C21U,0.0833
3,C19A G44A,0.685
4,U18A C20A,0.0667
5,C19A C25G,0.0863
6,C19A C25A,0.0869
7,G17C C26G,0.446
8,G17U G38U,0.158
9,G17C G43U,0.0878
10,G17C G43A,0.0872
11,U18G G41U,0.0362
12,U18G G41A,0.0588
13,G17C C27A,0.0647
14,G17C C20A,0.0695
15,G17C C20U,0.0836
16,U18C A23U,0.242
17,U18C A23G,0.157
18,U18C A23C,0.506
19,U18G A40C,0.0607
20,G17U G42A,0.104
21,G17U G42C,0.126
22,G17U C27A,0.148
23,C19A G43C,0.317
